According to patent US12397035B2, “Compositions and methods for treatment” (Celosia Therapeutics Pty Ltd, priority 2019, dated 2025):

What was measured:
Assay type in all cases: binding
[1] = target: T1, TDP-43 (Homo sapiens, UniProt Q13148); assay: Co-immunoprecipitation of Fx (α-helix 6 of 14-3-3θ) with TDP-43; settings: Fx expressed in cells, FIG. 5
T1 construct: expressed in transfected cells; host or cells: 293T HEK cells
Experimental: Immunoprecipitation. Immunoprecipitation was performed as previously described (Ittner et al., 2009, J Biol Chem 284: 20909-20916). Briefly, 293T HEK cells were co-transfected with variants of TDP-43 in pcDNA3.1/V5 and/or 14-3-3 isoforms/variants. Cells were lysed in RIPA buffer. Equal amounts of proteins were incubated overnight with 1 ul of V5 antibody (Life Technologies) and precipitated using magnetic Protein G beads (Life Technologies). Co-immunoprecipitation was further confirmed by Western blotting using myc antibodies.
Western blotting. Western blotting was performed as previously described (Ke et al., 2012, PLoS One 7: e35678). Primary antibodies used for immunoblotting were human TDP-43, c-terminal TDP-43, pan-TDP-43 (Proteintech), 14-3-3θ (Abeam), V5, myc (Life Technologies), phospho-TDP-43 S409/410 (Cosmobio), GAPDH (Merck-Millipore).
Cell culture and staining. All immunorecipitation experiments were carried out in 293T HEK cells. Cells were maintained in DMEM containing 10% fetal bovine serum (FBS) as per standard protocols. SH-SY5Y cells were maintained in DMEM/F-12 containing 10% FBS and used for 14-3-3θ overexpression or knockdown. Stable overexpression and knockdown of 14-3-3θ were achieved through lentiviral transduction. For immunocytochemistry, cells were fixed in 4% PFA and blocked with 3% heat-inactivated goat serum/2% BSA. […]

[2] = target: T2, FOXO1 (Homo sapiens, UniProt Q12778); assay: Co-immunoprecipitation of Fx with known 14-3-3θ partner FOXO1; settings: data not shown
T2 construct: host or cells: 293T HEK cells
T2 sequence (Q12778 whole entry, species assumed): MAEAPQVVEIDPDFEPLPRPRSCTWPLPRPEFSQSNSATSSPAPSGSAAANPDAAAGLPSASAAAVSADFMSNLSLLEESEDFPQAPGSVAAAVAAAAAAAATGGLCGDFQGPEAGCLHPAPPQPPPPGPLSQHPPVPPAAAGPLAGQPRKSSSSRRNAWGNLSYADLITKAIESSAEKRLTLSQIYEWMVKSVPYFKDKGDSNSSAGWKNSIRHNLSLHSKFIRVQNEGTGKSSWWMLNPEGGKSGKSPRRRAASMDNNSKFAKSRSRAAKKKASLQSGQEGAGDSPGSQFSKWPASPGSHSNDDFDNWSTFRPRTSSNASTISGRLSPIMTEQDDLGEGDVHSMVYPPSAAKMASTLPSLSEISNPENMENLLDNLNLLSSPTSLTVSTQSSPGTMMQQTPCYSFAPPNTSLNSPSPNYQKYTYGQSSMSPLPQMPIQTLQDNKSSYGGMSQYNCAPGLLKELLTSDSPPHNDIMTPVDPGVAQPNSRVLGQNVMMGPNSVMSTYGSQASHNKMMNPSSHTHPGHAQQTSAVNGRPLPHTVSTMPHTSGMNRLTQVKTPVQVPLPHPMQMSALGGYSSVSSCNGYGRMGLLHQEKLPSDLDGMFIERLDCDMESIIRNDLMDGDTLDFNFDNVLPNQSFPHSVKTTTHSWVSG

[3] = target: T3, YES-associated protein (YAP) (Homo sapiens, UniProt P46937); assay: Co-immunoprecipitation of Fx with known 14-3-3θ partner YAP; settings: data not shown
T3 construct: host or cells: 293T HEK cells
T3 sequence (P46937 whole entry): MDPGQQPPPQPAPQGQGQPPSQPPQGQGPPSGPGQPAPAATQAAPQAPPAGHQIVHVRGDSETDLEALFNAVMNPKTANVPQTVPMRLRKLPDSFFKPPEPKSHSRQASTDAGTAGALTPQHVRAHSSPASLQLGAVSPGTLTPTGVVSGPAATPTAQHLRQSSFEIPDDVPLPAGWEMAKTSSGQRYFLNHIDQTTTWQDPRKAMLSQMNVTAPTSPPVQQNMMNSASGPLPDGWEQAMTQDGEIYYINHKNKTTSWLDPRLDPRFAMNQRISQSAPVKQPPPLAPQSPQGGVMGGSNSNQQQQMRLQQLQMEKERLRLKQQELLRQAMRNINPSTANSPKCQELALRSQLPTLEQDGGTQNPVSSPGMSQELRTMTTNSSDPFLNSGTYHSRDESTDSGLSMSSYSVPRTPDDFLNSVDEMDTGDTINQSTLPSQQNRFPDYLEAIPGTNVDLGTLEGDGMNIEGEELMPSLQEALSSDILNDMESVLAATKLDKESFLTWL

T1 sequence (Q13148 whole entry): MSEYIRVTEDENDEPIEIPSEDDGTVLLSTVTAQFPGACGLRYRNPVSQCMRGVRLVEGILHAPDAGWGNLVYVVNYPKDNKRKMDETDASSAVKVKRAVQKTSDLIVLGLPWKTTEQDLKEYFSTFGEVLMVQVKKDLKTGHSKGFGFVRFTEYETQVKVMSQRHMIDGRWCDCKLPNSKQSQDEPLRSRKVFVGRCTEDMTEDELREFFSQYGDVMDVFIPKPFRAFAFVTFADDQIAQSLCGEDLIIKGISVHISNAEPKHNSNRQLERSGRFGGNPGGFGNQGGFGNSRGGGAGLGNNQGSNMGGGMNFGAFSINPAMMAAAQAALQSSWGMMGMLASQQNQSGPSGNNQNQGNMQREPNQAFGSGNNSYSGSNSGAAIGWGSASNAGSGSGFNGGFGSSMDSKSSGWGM

co-precipitation of TDP-43 [1]: co-precipitated TDP-43 | pull down of FOXO1 [2]: failed to pull down | pull down of YES-associated protein (YAP) [3]: failed to pull down
Substance: Fx: construct including only α-helix 6 (αF) of 14-3-3θ, 30 amino acid sequence SEQ ID NO:2 (amino acids 135-164) (GDDRKQTIDNSQGAYQEAFDISKKEMQPTH; V5 tag in some forms; listed as Homo sapiens)
